Tests used:
[1] = target: T1, [2Fe-2S]-IscR (wild type, anaerobically isolated) (Escherichia coli K12, UniProt P0AGK8 1-162); test: fluorescence anisotropy; air 15 min, then returned to anaerobic chamber and assayed anaerobically; Anisotropy: 40 mM Tris-Cl pH 7.9, 30 mM KCl, 5% glycerol, anaerobic unless stated, temperature not stated for the binding step; EMSA: 40 mM Tris-Cl pH 7.9, 150; details: protein: recombinant; chain copies: 2; label: 5' Texas Red on strand 1; blunt
T1 sequence: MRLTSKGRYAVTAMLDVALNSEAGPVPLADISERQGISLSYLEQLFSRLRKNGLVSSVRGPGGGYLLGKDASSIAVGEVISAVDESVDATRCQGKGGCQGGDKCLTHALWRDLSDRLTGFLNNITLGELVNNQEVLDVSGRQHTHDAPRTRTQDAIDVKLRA

[2] = target: T1, [2Fe-2S]-IscR (wild type, anaerobically …); test: fluorescence anisotropy; [2Fe-2S]1+ cluster, anaerobic, no PMS; apparent Kd; Anisotropy: 40 mM Tris-Cl pH 7.9, 30 mM KCl, 5% glycerol, anaerobic unless stated, temperature not stated for the binding step; EMSA: 40 mM Tris-Cl pH 7.9, 150; details: protein: recombinant; chain copies: 2; label: 5' Texas Red on strand 1; blunt

B1: iscRB type 1 site 30 bp (dsDNA)
DNA 1: AAATAGTTGACCATTTTACTCGGGAATGTC
DNA 2: GACATTCCCGAGTAAAATGGTCAACTATTT
B1 gave a Kd [1] of 26 nM and a Kd [2] of 22 nM.

Reference: publication PMC12594620, “The Role of the [2Fe‐2S] Cluster of Escherichia coli IscR in Responding to Redox‐Cycling Agents”
